In experiment [1] the target is T1, HTTQ23-HAP40 (Homo sapiens, UniProt P23610+P42858, INS38QQ).
T1 construct: Full-length wildtype HTT with a polyQ tract of 23 glutamines; FLAG; made in house; host or cells: Sf9 insect cells (baculovirus)
Kind of experiment: Thermal shift assay (DSF), HTTQ23-HAP40. The class given is binding. The conditions noted are these: SYPRO Orange, 0.25 mg/mL protein, macrocycle up to 10 μM, 2.5% DMSO, n=3. Here is the method: In an Axygen® 384-well PCR microplate (REF# PCR-384-LC480-W-NF, Corning), samples were mixed to yield a final concentration of 0.25 mg/mL Q54 or Q23/HAP40, a 5-pt 2-fold serial dilution of each macrocycle (top concentration of 10 μM, 2.5% DMSO), and 5X SYPRO™ Orange (CAT# S6650, Thermo Fisher Scientific) in buffer (20 mM HEPES pH 7.4, 150 mM NaCl, 1 mM TCEP, 0.005% Tween-20). Differential Scanning Fluorimetry (DSF) was performed using a LightCycler® 480 (Roche LifeSciences) set to a 4 °C/min temperature ramp (20–95 °C) and fluorescence detection at 580 nm. Melting temperatures (Tm) were obtained from the minima of the negative derivative of each curve. The propagated error of the thermal shift (ΔTm) was calculated from the standard deviation of each Tm mean (n=3). To ensure a maximally macrocycle-bound fraction (KD ~10 nM; ~100% bound) at 0.25 mg/mL HTT or HTT-HAP40 (~0.7 μM), the upper limit of macrocycle tested was 10 μM.
98 Supplementary Figure. 10. Thermal shift (ΔTm) induced by macrocycle binding. Melting
99 temperature of HTTQ54 (left) with HL5 or HL2 minus HTTQ54 with DMSO (46.5 °C), and (right)
100 HTTQ23-HAP40 with HD4, HL2, HL5, HHD2, HHD3, or HHL1 minus HTTQ23-HAP40 with DMSO
101 (51.0 °C). ΔTm significance was determined using an unpaired t-test with Welch correction,
102 comparing to the mean Tm of Q54 or Q23-HAP40 with DMSO; *P < 0.05, **P < 0.01, ***P <
103 0.001. The summary table reports the ΔTm and exact P value at the highest concentration tested
(§1) (1 picture or pasted object on this page, not shown here)

For a further experiment, the system named is HTT-HAP40 or HTT (HL5). Put plainly: FP displacement assay, FITC-labeled and unlabeled macrocycle pairs. In kind it is binding. The conditions noted are these: FITC-labeled HHL1 on HTT-HAP40; biological singlet in technical triplicate.
Text: We further verified the specificity of binding of the macrocycles for HTT and HTT-HAP40 by displacement assay (Supplementary Figure 3) with FITC-labeled and unlabeled macrocycle pairs. All labelled macrocycles were displaced by their sequence-matched unlabeled macrocycle, with IC50 values in the nanomolar range.
57 Supplementary Figure 3. Displacement of fluorescently labeled macrocycles. a, Schematic for
58 assay. b, Each fluorescently labeled macrocycle is displaced by its unlabeled partner from HTT-
59 HAP40 or HTT (HL5) Conducted as a biological singlet in technical triplicate. c, Fluorescently
60 labeled HHL1 is displaced by itself and HHD3, but no other macrocycle.
as §1

The subject of another experiment is HAP40. Kind of experiment: Macrocycle precipitation (MP), co-purification of HAP40, LC-MS/MS. The class given is binding, human. The note with it: HEK293T lysate versus HTT CRISPR knockout line. The source says:
To assess macrocycle selectivity and identify potential HTT interacting proteins, we performed LC-MS/MS analysis of the proteins in the MP eluates. To control for non-specific binding, we performed MPs using lysates from a HTT CRISPR knockout cell line ([Jung et al., 2021]). Across all macrocycles, HTT emerged as the most enriched protein after background subtraction (Figure 5b). Given we performed affinity purification using macrocycles targeting distinct HTT surfaces, we hypothesized that any real HTT protein binder might be co-purified with two or more macrocycles. […] In contrast, HAP40 was not enriched by HL5, consistent with its specificity for apo HTT.
Macrocycles were pre-conjugated to streptavidin beads (Cytiva, 17-5113-01) by incubating with a 30 μL slurry of beads per macrocycle purification (MP) in Lysis Buffer (10 mM Tris-HCl, pH 7.9, 150 mM NaCl, 0.1% NP-40, 1:500 protease inhibitor cocktail (Sigma-Aldrich), 1:1,000 benzonase nuclease, and 2 mM MgCl2) for 1 hour at 4°C. A concentration of 1.25 μM macrocycle was used for conjugation. After incubation, beads were washed three times with 500 μL Lysis Buffer to remove unbound macrocycles and resuspended in 500 μL of lysate at 4 mg/mL protein concentration.
Cells were harvested by centrifugation at 1,500 rpm for 5 minutes, washed twice with PBS, and snap-frozen. Cell pellets were then resuspended in 500 μL of Lysis Buffer (as described above) and incubated on an end-over-end rotator at 4°C for 1 hour. Lysates were clarified by centrifugation at 20,000g for 15 minutes at 4°C, and the supernatant was transferred to fresh 1.5 mL Eppendorf tubes. Protein concentration was determined by BCA assay (Thermo Fisher Scientific, 23225), yielding approximately 4 mg of protein on average. Lysates were diluted to a final concentration of 4 mg/mL for use, providing […] of total protein per MP.
Macrocycle-conjugated beads were incubated with 2 mg of lysate in Lysis Buffer for 1 hour at 4°C with rotation. After incubation, beads were collected by centrifugation at 3,000 rpm, and the flow-through was saved for analysis. Beads were then washed sequentially with 1 mL of Wash Buffer 1 (10 mM Tris-HCl, pH 7.9, 100 mM NaCl, 0.1% NP-40) and twice with Wash Buffer 2 (Wash Buffer 1 without detergent). Lastly, bound proteins were eluted from the beads with 200 μL of 0.5 M NH4OH and flash-frozen in liquid nitrogen.
All sample preparation, LC MS/MS data collection, and MS data searches were carried out at the SPARC BioCentre at The Hospital for Sick Children (Toronto, ON, Canada). […] Samples were analyzed by liquid chromatography tandem mass spectrometry (LC-MS/MS) using an EASY-nanoLC 1200 system with a 1 h analysis and an Orbitrap Fusion™ Lumos™ Tribrid™ Mass Spectrometer (Thermo Fisher Scientific). […]

Experiment [2] addresses T2, 40-kDa huntingtin-associated protein (HAP40), chain of the HTT-HAP40 complex used for cryo-EM (UniProt P23610 1-371).
T2 construct: 40-kDa huntingtin-associated protein (HAP40); model built from PDB 6X90; The HAP40 chain of m26, for the pairs that touch in the structures
T2 sequence (looked up): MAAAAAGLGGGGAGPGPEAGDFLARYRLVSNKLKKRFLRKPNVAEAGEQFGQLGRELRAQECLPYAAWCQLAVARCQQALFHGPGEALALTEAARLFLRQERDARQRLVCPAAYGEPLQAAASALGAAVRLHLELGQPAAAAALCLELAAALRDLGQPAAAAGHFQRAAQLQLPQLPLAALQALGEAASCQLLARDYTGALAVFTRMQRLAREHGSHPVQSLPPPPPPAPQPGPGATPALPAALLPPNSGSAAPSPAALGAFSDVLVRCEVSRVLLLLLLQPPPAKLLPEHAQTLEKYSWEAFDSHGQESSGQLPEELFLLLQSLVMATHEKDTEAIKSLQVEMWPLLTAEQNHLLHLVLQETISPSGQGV
Kind of experiment: cryo-EM structure; HTT-HAP40 macrocycle complexes at 0.2 mg/ml in 25 mM HEPES pH 7.4, 150 mM NaCl, 0.025% CHAPS on graphene grids; Complex1 (HHL1, HL2, HD4) and Complex2 (HHD3, HL2, HD4). The note with it: both partners purified.

Experiment [3] concerns the target C-terminally biotinylated HTTQ23 (apo) (biotin on the C-terminal Avi-tag). Kind of experiment: SPR. (In general: In SPR one partner is held on a chip, and binding of the other changes the refractive index at the surface.)
In another experiment the target is HTTQ54 (apo). Kind of experiment: FP.
Experiment [4] concerns the target Full-length wildtype HTT with a polyQ tract of 23 glutamines, apo form (HTTQ23). Kind of experiment: FP.
Experiment [5] concerns the target HTTQ23-HAP40 (UniProt P23610 1-371). Kind of experiment: FP.
Experiment [6] concerns the target C-terminally biotinylated HTTQ23 in complex with HAP40 (UniProt P23610 1-371, biotin on the C-terminal Avi-tag). Kind of experiment: SPR.

Where a SMILES comes first, the peptide text is derived from it. Bridges are numbered along the chain shown (N, C = ends). Primed or numbered codes have the meaning given here. Where no end group is shown, it is not given here. [ ]: non-standard residue; d: D form. The star is where a group is joined. FITC″ = fluorescein isothiocyanate; ClAc = O=C(CCl)*

T1 sequence (P42858 with tags, fused parts or gaps INS38QQ, one chain of several): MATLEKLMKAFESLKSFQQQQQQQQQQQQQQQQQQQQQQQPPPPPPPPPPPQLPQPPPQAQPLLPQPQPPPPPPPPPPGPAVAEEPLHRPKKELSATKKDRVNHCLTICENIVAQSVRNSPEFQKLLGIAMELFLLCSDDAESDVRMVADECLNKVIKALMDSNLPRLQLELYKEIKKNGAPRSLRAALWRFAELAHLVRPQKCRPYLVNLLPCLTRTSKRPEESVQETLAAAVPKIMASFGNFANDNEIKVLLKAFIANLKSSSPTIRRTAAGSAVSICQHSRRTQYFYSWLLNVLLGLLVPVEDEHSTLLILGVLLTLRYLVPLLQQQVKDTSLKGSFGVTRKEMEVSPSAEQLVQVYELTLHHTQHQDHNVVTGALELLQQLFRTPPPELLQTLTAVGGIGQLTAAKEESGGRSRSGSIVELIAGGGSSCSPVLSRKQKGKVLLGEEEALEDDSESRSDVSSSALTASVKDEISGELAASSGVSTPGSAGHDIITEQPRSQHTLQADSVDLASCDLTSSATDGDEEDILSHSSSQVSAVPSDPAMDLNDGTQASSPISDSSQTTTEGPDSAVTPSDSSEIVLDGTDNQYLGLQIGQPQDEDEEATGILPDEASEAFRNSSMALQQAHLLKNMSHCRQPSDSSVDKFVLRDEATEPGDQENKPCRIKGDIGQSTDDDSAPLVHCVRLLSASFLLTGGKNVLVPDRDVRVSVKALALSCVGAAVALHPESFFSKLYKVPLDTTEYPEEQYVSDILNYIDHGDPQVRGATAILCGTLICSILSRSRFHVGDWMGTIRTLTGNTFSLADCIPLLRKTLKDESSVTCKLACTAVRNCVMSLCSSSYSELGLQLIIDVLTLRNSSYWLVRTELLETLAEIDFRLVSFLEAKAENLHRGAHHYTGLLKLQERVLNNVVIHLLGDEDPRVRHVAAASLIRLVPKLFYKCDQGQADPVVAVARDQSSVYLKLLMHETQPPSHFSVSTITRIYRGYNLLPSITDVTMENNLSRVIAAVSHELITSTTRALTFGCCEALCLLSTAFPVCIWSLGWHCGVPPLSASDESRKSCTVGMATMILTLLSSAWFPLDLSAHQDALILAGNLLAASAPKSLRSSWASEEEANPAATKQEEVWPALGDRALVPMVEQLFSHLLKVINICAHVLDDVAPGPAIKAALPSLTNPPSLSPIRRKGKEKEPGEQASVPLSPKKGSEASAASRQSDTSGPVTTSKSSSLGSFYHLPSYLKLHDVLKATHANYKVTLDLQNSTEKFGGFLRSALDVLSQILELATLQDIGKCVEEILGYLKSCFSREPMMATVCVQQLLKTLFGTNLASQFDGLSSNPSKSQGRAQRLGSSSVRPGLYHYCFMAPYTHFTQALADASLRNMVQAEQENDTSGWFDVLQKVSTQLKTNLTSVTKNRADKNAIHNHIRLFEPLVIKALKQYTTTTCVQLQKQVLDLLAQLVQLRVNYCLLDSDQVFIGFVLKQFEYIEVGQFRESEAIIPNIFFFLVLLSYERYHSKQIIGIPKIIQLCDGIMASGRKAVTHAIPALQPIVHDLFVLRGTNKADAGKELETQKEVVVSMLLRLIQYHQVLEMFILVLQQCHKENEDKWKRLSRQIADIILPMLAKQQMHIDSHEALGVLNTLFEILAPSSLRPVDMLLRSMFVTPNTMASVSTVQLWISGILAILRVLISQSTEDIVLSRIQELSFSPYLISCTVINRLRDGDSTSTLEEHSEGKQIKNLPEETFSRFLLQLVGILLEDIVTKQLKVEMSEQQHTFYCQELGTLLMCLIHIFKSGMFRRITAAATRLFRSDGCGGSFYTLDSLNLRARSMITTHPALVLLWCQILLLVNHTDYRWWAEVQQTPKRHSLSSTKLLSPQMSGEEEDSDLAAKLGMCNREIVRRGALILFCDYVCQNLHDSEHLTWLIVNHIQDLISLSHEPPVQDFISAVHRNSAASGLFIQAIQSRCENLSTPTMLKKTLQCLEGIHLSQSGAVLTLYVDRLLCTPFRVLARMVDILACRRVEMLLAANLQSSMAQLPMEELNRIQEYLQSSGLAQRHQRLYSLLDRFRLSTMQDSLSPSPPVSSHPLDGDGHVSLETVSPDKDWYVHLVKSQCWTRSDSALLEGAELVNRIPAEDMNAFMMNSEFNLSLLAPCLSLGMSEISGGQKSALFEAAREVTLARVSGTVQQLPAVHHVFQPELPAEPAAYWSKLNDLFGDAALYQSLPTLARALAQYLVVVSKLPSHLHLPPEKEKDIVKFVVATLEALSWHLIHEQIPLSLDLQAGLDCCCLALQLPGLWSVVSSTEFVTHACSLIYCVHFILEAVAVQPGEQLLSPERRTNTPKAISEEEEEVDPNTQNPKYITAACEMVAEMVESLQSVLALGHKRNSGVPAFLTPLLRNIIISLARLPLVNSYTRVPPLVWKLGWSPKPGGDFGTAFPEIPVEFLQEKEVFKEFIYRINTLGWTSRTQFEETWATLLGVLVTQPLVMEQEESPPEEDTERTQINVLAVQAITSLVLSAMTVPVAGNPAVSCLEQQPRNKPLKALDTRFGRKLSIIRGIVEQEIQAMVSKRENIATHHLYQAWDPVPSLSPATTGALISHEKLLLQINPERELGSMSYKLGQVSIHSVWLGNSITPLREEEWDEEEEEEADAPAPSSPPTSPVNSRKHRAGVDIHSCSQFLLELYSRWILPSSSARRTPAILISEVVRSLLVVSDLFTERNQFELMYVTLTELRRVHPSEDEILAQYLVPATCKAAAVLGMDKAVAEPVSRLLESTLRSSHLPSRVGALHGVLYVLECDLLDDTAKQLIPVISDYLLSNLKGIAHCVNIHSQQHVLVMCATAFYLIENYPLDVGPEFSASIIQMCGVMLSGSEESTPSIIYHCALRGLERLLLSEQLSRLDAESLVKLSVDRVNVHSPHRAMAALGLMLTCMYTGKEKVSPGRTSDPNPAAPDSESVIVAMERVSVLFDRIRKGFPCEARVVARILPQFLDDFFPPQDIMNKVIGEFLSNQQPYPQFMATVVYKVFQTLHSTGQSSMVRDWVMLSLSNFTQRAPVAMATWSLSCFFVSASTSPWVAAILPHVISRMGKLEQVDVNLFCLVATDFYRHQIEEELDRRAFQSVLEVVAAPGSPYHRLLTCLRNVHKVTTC
Chain of C-terminally biotinylated HTTQ23 (apo) (biotin on the C-terminal Avi-tag) (P42858 other isoform, or with tags, fused parts or gaps): as the sequence (P42858 with tags, fused parts or gaps INS38QQ, one chain of several) above, with Y2311H, V2788I counted along it
Chain of C-terminally biotinylated HTTQ23 in complex with HAP40 (P42858 other isoform, or with tags, fused parts or gaps, chain 1 of 2, one chain of several): as the sequence (P42858 with tags, fused parts or gaps INS38QQ, one chain of several) above, with Y2311H, V2788I counted along it
Chain of Full-length wildtype HTT with a polyQ tract of 23 glutamines, apo form (HTTQ23) (P42858 other isoform, or with tags, fused parts or gaps): as the sequence (P42858 with tags, fused parts or gaps INS38QQ, one chain of several) above, with Y2311H, V2788I counted along it

Consider `CC[C@H](C)[C@@H]1NC(=O)[C@H](Cc2c[nH]c3ccccc23)NC(=O)[C@H](Cc2c[nH]c3ccccc23)NC(=O)[C@H](CC(N)=O)NC(=O)[C@H](CC(N)=O)NC(=O)[C@H](CCC(N)=O)NC(=O)[C@H](Cc2c[nH]c3ccccc23)NC(=O)[C@H](Cc2c[nH]cn2)NC(=O)[C@H](CCCNC(=N)N)NC(=O)[C@H]([C@@H](C)O)NC(=O)[C@@H](Cc2ccc(O)cc2)NC(=O)CSC[C@@H](C(N)=O)NC(=O)[C@H](Cc2ccccc2)NC(=O)[C@H](CCC(=O)O)NC(=O)[C@H](Cc2c[nH]cn2)NC(=O)[C@H](Cc2ccc(O)cc2)NC(=O)[C@H](CC(C)C)NC1=O` [HHD3] ({CH2CO}-[dY]TRHWQNNWWILYHEFC-NH2; thioether N-17; C-terminus assumed), for which the “Thermal shift (ΔTm) of HTTQ23-HAP40 induced by macrocycle” value at HTTQ23-HAP40 [1] was “stabilized”. Further, the “Displacement of fluorescently labeled HHL1 by unlabeled macrocycle” value with HTT-HAP40 or HTT (HL5) is recorded as “displaced”. Besides, the “Enrichment of HAP40 in macrocycle pulldowns” value with HAP40 is recorded as “consistently enriched”.

Regarding `CC[C@H](C)[C@@H]1NC(=O)[C@H](CC(C)C)NC(=O)[C@H](Cc2ccc(O)cc2)NC(=O)CSC[C@@H](C(N)=O)NC(=O)[C@@H]2CCCN2C(=O)[C@H](C(C)C)NC(=O)[C@H](CCC(=O)O)NC(=O)[C@H](C(C)C)NC(=O)[C@H](Cc2ccccc2)NC(=O)[C@H](C(C)C)NC(=O)[C@H](Cc2ccccc2)NC(=O)[C@H](Cc2c[nH]c3ccccc23)NC(=O)[C@H](CC(N)=O)NC(=O)[C@H](Cc2ccccc2)NC(=O)[C@H](CO)NC(=O)[C@H](CO)NC(=O)[C@H](CCCNC(=N)N)NC1=O` [HHL1] ({CH2CO}-YLIRSSFNWFVFVEVPC-NH2; thioether N-17; C-terminus assumed), the “Thermal shift (ΔTm) of HTTQ23-HAP40 induced by macrocycle” value at HTTQ23-HAP40 [1] is recorded as “stabilized”. Further, in the experiment with HTT-HAP40 or HTT (HL5), the “Displacement of fluorescently labeled HHL1 by unlabeled macrocycle” value is recorded as “displaced”.

B1: HHD3 (peptide)
peptide: {CH2CO}-[dY]TRHWQNNWWILYHEFC
modifications: thioether N-17 (inferred)
notes: macrocyclic peptide selected by RaPID on HTT-HAP40; printed with a superscript D before the first Y (D-tyrosine); also called macrocycle HHD3; source: synthetic peptide (Fmoc SPPS, RP-HPLC), without tags
For B1, the binding result in experiment [2] is “binds”.

Turning to {CH2CO}-YTHFQVAPWIQSLC (thioether N-14 (inferred)) [HL5], in experiment [3], the affinity, expressed as Kd, was 10 nM.

B2: FITC-labeled HD4 (peptide)
peptide: ClAc-[dY]DIWCETNKQTGILVLC-{FITC″}
modifications: thioether (positions not given here); also: thioether to downstream Cys, which of Cys5/Cys17 not given here
Regarding B2, the equilibrium dissociation constant (Kd) (commonly the concentration at which binding is half-saturated) with HTTQ54 (apo) is 1.5 nM; in experiment [4], 7.3 nM; with HTTQ23-HAP40 [5], 1.6 nM.

B3: HHL1 (peptide)
peptide: {CH2CO}-YLIRSSFNWFVFVEVPC
modifications: thioether N-17 (inferred)
notes: macrocyclic peptide selected by RaPID on HTT-HAP40; also called macrocycle HHL1; source: synthetic peptide (Fmoc SPPS, RP-HPLC), without tags
With B3, the binding result in experiment [2] is on record as “binds”. The Kd in experiment [6] was found to be 7 nM.

B4: HD4 (peptide)
peptide: ClAc-[dY]DIWCETNKQTGILVLC
modifications: thioether (positions not given here); also: thioether to downstream Cys, which of Cys5/Cys17 not given here
In the case of B4, the results for the dissociation constant Kd in experiment [3] and in experiment [6] were 4.1 nM and 2.1 nM, respectively.

Values taken from paper doi:10.1101/2025.08.06.668955, “High-Affinity, Structure-Validated and Selective Macrocyclic Peptide Tools for Chemical Biology Studies of Huntingtin” (bioRxiv, 2025).
